Article PMC8604303, “Polymerization of C9 enhances bacterial cell envelope damage and killing by membrane attack complex pores” (PLoS Pathogens, 2021)

Biological target: the molecule itself
Assay: cell-based or functional assay

B1: wildtype C9 (C9wt) (natural protein)
chain: not shown
modifications: Cy5 at the C-terminus in the binding assays (GGGK-azide sortagged onto LPETGG, then DBCO-Cy5 by copper-free click chemistry)
- bacterial viability (CFU) of C5b-8 labelled E. coli MG1655 with 100 nM C9, decrease: ≥ 1000 fold
